# From patent US20100158924A1, “Expression of the cysteine protease legumain in vascular and inflammatory diseases” (Wyeth, LLC, priority 2006, published 2010)
# * marks the point of attachment. Fmoc = O=C(OCC1c2ccccc2-c2ccccc21)*
# T1: mouse legumain (Mus musculus, UniProt O89017)
# T1 construct: expressed in transfected cells; host or cells: HEK293 cells infected with adenovirus
# T1 sequence (O89017 18-325): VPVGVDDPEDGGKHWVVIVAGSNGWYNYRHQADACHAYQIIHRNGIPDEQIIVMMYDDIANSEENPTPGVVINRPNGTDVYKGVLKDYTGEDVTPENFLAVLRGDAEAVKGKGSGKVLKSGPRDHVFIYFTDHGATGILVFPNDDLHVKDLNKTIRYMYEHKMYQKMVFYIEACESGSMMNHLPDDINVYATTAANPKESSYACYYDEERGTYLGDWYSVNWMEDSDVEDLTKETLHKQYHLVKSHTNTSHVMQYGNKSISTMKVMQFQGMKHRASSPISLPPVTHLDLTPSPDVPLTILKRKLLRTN
# B1: cystatin M: cystatin reported to inhibit legumain (protein, UniProt Q15828 29-149, looked up)
# Cystatin-M: RPQERMVGELRDLSPDDPQVQKAAQAAVASYNMGSNSIYYFRDTHIIKAQSQLVAGIKYFLTMEMGSTDCRKTRVTGDHVDLTTCPLAAGAQQEKLRCDFEVLVVPWQNSSQLLKHNCVQM
# B2: heat-denatured form: heat-denatured form of legumain (protein, UniProt Q99538 18-323, looked up)
# Legumain: VPIDDPEDGGKHWVVIVAGSNGWYNYRHQADACHAYQIIHRNGIPDEQIVVMMYDDIAYSEDNPTPGIVINRPNGTDVYQGVPKDYTGEDVTPQNFLAVLRGDAEAVKGIGSGKVLKSGPQDHVFIYFTDHGSTGILVFPNEDLHVKDLNETIHYMYKHKMYRKMVFYIEACESGSMMNHLPDNINVYATTAANPRESSYACYYDEKRSTYLGDWYSVNWMEDSDVEDLTKETLHKQYHLVKSHTNTSHVMQYGNKTISTMKVMQFQGMKRKASSPVPLPPVTHLDLTPSPDVPLTIMKRKLMNTN
# modifications: heat-denatured
# notes: heat-denatured form of legumain
# B3: cystatin C: protease inhibitor cystatin C (R&D Systems) (protein, UniProt P01034 27-146, looked up)
# Cystatin-C: SSPGKPPRLVGGPMDASVEEEGVRRALDFAVGEYNKASNDMYHSRALQVVRARKQIVAGVNYFLDVELGRTTCTKTQPNLDNCPFHDQPHLKRKAFCSFQIYAVPWQGTMTLSKSTCQDA
# B4: legumain: purified proform of the lysosomal cysteine protease legumain (R&D Systems), tested as chemoattractant (protein)
# chain: T1 sequence (O89017 18-325)
# B5: ovocystatin: cystatin reported to inhibit legumain (protein, UniProt P01038 24-139, looked up)
# Cystatin: SEDRSRLLGAPVPVDENDEGLQRALQFAMAEYNRASNDKYSSRVVRVISAKRQLVSGIKYILQVEIGRTTCPKSSGDLQSCEFHDEPEMAKYTTCTFVVYSIPWLNQIKLLESKCQ
# Assays:
# [1] = tested on: primary human monocytes; experiment: Human monocytes migration assay (modified Boyden chamber); type: cell-based; settings: for chemoattractant function: data not shown
# Experimental: Human monocytes were isolated from the blood of healthy donors using the negative selection method with the Monocyte Isolation Kit (Miltenyi Biotech) according to manufacturer's instructions. The purity of isolated monocytes was confirmed by flow cytometry on CD 14-stained cells. Cells were tested in a modified Boyden chamber assay using Multi Screen 96-well filtration plate (Millipore, 5.0 μm pore size). Serum-starved monocytes were added to the top chamber (20,000 cells/well), and serum-free culture medium was added to the bottom chamber with or without purified legumain (R&D Systems). VEGF (R&D Systems) was used as a positive control. Cells that migrated into the bottom chamber were quantified using a luminescent cell viability assay (CellTiter-Glo® Assay, Promega, Madison, Wis.) at 2 hours.
# [2] = tested on: HUVECs; experiment: Modified Boyden chamber Matrigel invasion assay, HUVECs; type: cell-based, human
# Source text: In a modified Boyden chamber assay, 25,000 serum starved HUVECs loaded into the top chamber were allowed to invade a Matrigel coated PET membrane ([…], Becton Dickinson, BioCoat Angiogenesis System: Endothelial Cell Invasion) in response to purified legumain added to the bottom chamber. Cells that invaded through the Matrigel matrix were quantified using a luminescent cell viability assay (CellTiter-Glo® Assay, Promega, Madison, Wis.). VEGF was used a positive control.
# [3] = tested on: HUVECs; experiment: In vitro wound-healing assay, HUVECs; type: cell-based, human
# Experimental: (§1) HEK293 cells (ATCC, Manassas, Va.) used at passage 10 and HUVECs (Cambrex, Walkersville, Md.) used at passage 3 were seeded onto single-chamber slides (Lab-Tek cat# 177410, Campbell, Calif.). HEK293 cells were cultured to >80% confluence in DMEM supplemented with 10% FBS and 1% penicillin/streptomycin/L-glutamine (Cat# 10378-016, Gibco, Invitrogen, Carlsbad, Calif.), and HUVECs were grown to >90% confluence in EGM (Cat# CC-3124, Cambrex, East Rutherford, N.J.). After washing the cells in serum-free medium, the monolayers were mechanically wounded using a cell scraper (Cat# 3010, Costar [Corning], Fisher Scientific, Pittsburgh, Pa.) to obtain a rectangular denuded area of 2.0×1.7 cm^2. Wounded cells were then incubated in serum-free medium supplemented with 0.05% delipidized BSA (BD Biosciences, Bedford, Mass.) and with VEGF (10 ng/mL, R&D Systems, Minneapolis, Minn.) or legumain (10 ng/mL or 25 ng/mL, R&D Systems, Minneapolis, Minn.) for 24 hours (HEK293 cells) or 20 hours (HUVECs). Wound healing was quantified by measuring the number of cells present in the area of the initial wound using a luminescent cell viability assay (CellTiter-Glo® Assay, Promega, Madison, Wis.).
# [4] = tested on: legumain; settings: background literature; cited from earlier work
# [5] = target: T1, mouse legumain; experiment: HEK293 cell-surface legumain activity assay (Z-AAN-MCA hydrolysis); type: cell-based; settings: inhibitor at 100 nM, live HEK293 cells overexpressing mouse legumain, pH 5.8, FIG. 7
# Experimental: HEK293 cells were plated in 96-well black tissue culture plate (BD Biosciences) and infected with adenovirus expressing mouse legumain at MOI of 10. 24 hours post infection, the cells were washed once with legumain assay buffer [39.5 mM citric acid, 125 mM Na2HPO4 (pH 5.8), 1 mM EDTA, 0.8% NaCl], and 50 μl of assay buffer containing 10 nM of the substrate Z-AAN-MCA (Peptide Institute, Louisville, Ky.) was added to each well. The protease inhibitors cystatin C(R&D Systems, Minneapolis, Minn.) or E64 (Sigma) were included in the assay buffer at a concentration of 100 nM. The plates were incubated at 37° C. for 10 min and measured for fluorescence in a VICTOR 3™ fluorescence plate reader (PerkinElmer, Wellesley, Mass.) using an excitation filter of 360 nm and an emission filter of 460 nm. Repeated measurements were carried out once every 5 min over a period of 20 min at room temperature. The increase of fluorescence over time was plotted.
# [6] = tested on: HEK293 cells; experiment: In vitro wound-healing assay, HEK293 cells; type: cell-based, human; settings: legumain at 10 ng/mL and 25 ng/mL, 24 hours, p<0.05, FIG. 8
# Experimental: as §1
molecule,measurement,setting,value
VEGF [reference compound],number of migrated cells compared with legumain at 25 ng/mL,"[1]; VEGF at 10 ng/mL, positive control",similar
same,invasion response compared with 25 ng/mL legumain,"[2]; 10 ng/mL VEGF, 22 hour period",similar
same,increase in migration compared with legumain at 25 ng/mL,"[3]; VEGF at 10 ng/mL, positive control, FIG. 9",same extent
Fmoc-AENK-NH2,effect on legumain activity,[4],inhibitor
"CC(C)C[C@H](NC(=O)[C@H]1O[C@@H]1C(=O)O)C(=O)NCCCCN=C(N)N (relative stereo) [E64, trans-epoxysuccinyl-L-leucylamido-(4-guanidino)butane, reference compound]",inhibition of cell-surface legumain activity,[5],not
same,effect on legumain activity,[4],unaffected
CC(=O)N[C@@H](CC(C)C)C(=O)N[C@@H](CC(C)C)C(=O)N[C@H](C=O)CCCNC(=N)N [leupeptin],effect on legumain activity,[4],unaffected
[Cu+2] [Cu2+],effect on legumain activity,[4],inhibition
[Hg+2] [Hg2+],effect on legumain activity,[4],inhibition
"Cc1cccc(C)c1C(=O)OCC(=O)C(CC(N)=O)NC(=O)OCc1ccccc1 (stereo not shown) [MV026630, 2,6-dimethyl-benzoic acid 3-benzyloxycarbonylamino-4-carbamoyl-2-oxo-butyl ester]",effect on legumain activity,[4],inhibit
O=S(=O)(O)c1cc[c]([Hg][Cl])cc1 [p-chloromercuribenzene-sulfonic acid],effect on legumain activity,[4],inhibition
C[C@H](NC(=O)[C@H](Cc1ccccc1)NC(=O)OCc1ccccc1)C(=O)C=[N+]=[N-] [Z-Phe-Ala-CHN2],effect on legumain activity,[4],unaffected
B1,effect on legumain activity,[4],inhibited
B2,chemoattractant function,[1],retain the chemoattractant function
B3,inhibition of cell-surface legumain activity,[5],inhibited
same,effect on legumain activity,[4],inhibited
B4,fold increase in migration of monocytes relative to control,"[1]; 25 ng/mL, 2 hours",2.3 fold
same,migration of human monocytes towards legumain,"[1]; Boyden chamber, 2 hours, FIG. 6",dose-dependent increase
same,chemoattractant function,[1],retain the chemoattractant function
same,minimal effective concentration of legumain,"[1]; migration of primary human monocytes, Boyden chamber, 2 hours",25 ng/mL
same,cell migration relative to control,[6],significant increase in cell migration
same,number of cells invading a Matrigel coated membrane,"[2]; 22 hour period, FIG. 10",dose-dependent increase
same,cell invasion relative to control,"[2]; legumain at 25 ng/mL, p<0.05, FIG. 10",significant increase in cell invasion
same,cell migration relative to control,"[3]; legumain at 25 ng/mL, 20 hours, p<0.05, FIG. 9",significant increase in cell migration
B5,effect on legumain activity,[4],inhibited
